Key:
[1] = target: B. subtilis S72N TRAP (trp RNA-binding attenuation protein, S72N mutant) (B. subtilis) (UniProt P19466); test: crystal structure; hanging drop vapor diffusion at 18°C; protein in 10 mM triethanolamine pH 8.0, 100 mM NaCl, 15 mM L-tryptophan, 33.5 mg/ml; six subunits in the asymmetric unit, 12-mer generated by the crystallographic 2-fold axis of P2(1)2(1)2
[2] = target: B. subtilis S72N TRAP (trp RNA-binding attenuation protein, S72N mutant) (B. subtilis) (UniProt P19466); test: native MS; nanoflow electrospray of purified S72N TRAP picked by SEC (elution volume less than 14.5 ml); methods in Text S1

stoichiometry N [1]: 12
stoichiometry N [2]: 12
Substance: B. subtilis S72N TRAP (trp RNA-binding attenuation protein, S72N mutant) (from UniProt P19466 1-71) (natural protein)
